According to patent US9505841B2, “Use of an anti-Ang2 antibody” (Samsung Electronics Co., Ltd., priority 2013, dated 2016):

Key:
Type in all cases: in vivo, mouse
[1] = system: blood vessels in tumor tissues; experiment: Immunofluorescence of blood vessels (CD31) and pericytes (PDGFR-β) in LLC tumors; details: LLC tumors of Example 14; compared to Fc- or 4H10-treated tumors
Description: To examine changes in blood vessels in tumor tissues after treated with antibody, frozen sections were obtained and subjected to immunofluorescence staining using a blood vessel specific marker, CD31 and a pericyte specific marker, PDGFR-β.
In particular, the tumor tissues obtained from Example 14 were frozen using OCT compound (Sakura Finetek), and frozen sections were obtained therefrom using cryostat (Leica). The obtained tumor frozen sections were blocked with 0.3% TBST (TBS mixed with 0.3% Triton X-100) buffer supplemented with 5% goat serum (Jackson Immunoresearch) for one hour. To the blocking buffer, hamster anti-CD31 antibody (1:200, Millipore) and rat anti-PDGF receptor beta antibody (1:200, eBioscience) were added, and the frozen sections were added thereto to be allowed to react for 3 hours. the reacted product was washed with TBS three times, and then, the blocking buffer mixed with cy3-conjugated anti-hamster IgG antibody and FITC-conjugated anti-rat IgG antibody (1:1,000, Jackson Immunoresearch) was added the frozen sections to be allowed to react for 2 hours. After washing with TBS three times, the frozen sections were covered with coverslip (Marenfield) using Fluorescence mounting medium (DAKO). The stained tumor frozen sections were observed using LSM5 (Zeiss) confocal microscope. […]

[2] = system: metastasis of lung cancer cells to near lymph nodes; experiment: LLC tumor metastasis to inguinal lymph nodes; details: 10 mg/kg i.p., five administrations, compared to Fc- or 4H10-treated group
Procedure: To see the degree of tumor metastasis to near lymph nodes when treated with antibody 10D6, referring to the method of Example 14, LLC tumor cells were subcutaneously injected into mice. When the size of tumors reached 50˜100 mm^3, anti-Ang2 antibody 10D6 was injected at the concentration of 10 mg/kg via an intraperitoneal injection three times a week and the size of the tumors was measured. After administering the antibody five-times, inguinal lymph nodes were separated, and the obtained tissue sections were immunostained using rabbit anti-LYVE-1 antibody (1:200, Millipore) and mouse pan-Cytokeratin antibody (1;200, Abcam).
(§1) For comparison, the same experiment was performed to a control group treated with Fc of IgG1 and a comparative group treated with antibody 4H10 (refer to Example 3).

[3] = system: blood vessels of normal mice; experiment: Vascular toxicity in normal mice; details: C57BL/6, 5 mg/kg i.p. solely or with 20 ug Ang2, every three days, 6 times
Procedure: The vascular toxicity of antibody 10D6 was tested.
In particular, 5 mg/kg of antibody 10D6 was administered to normal 6-week old C57BL/6 mice (Jackson Laboratory) solely or combined with 20 ug of Ang2 via an intraperitoneal injection every three days a total of 6 times, and then, the weight of the mice was measured. After 20 days, various tissues including thyroid, parathyroid, and adrenal gland were removed from the mice, and frozen sections were obtained therefrom. The frozen sections were immunostained using hamster anti-CD31 antibody (1:200, Millipore), and the changes were observed. A group administered with 20 ug of Ang2 solely was used for comparison.

[4] = system: LLC (Lewis Lung Carcinoma); experiment: LLC tumor growth model; details: LLC in C57BL/6 mice; 10 mg/kg intraperitoneal three times a week; control Fc of IgG1
Procedure: To see the tumor growth inhibitory effects of Ang2 antibody, a […] Xenograft model using a LLC (Lewis Lung Carcinoma) was employed.
LLC cells (ATCC) were cultured using 10% FBS (Gibco)-supplemented DMEM (Gibco) media. 1×10^6 of LLC cells were re-suspended in 100 ul of PBS (Gibco) and then subcutaneously injected into 6˜8-week-old C57BL/6 mice (Jackson Laboratory) anesthetized with 1˜2% isoflurane.
When the size of tumors reached 50˜100 mm^3, anti-Ang2 antibody (10D6) was injected at the concentration of 10 mg/kg via an intraperitoneal injection three times a week and the size of the tumors was measured.
The size of tumor (V) was calculated using the following formula: Volume (V)=(width)2×length/2
as §1

B1: 10D6: mouse anti-Ang2 monoclonal antibody from hybridoma KCLRF-BP-00295; heavy chain variable region SEQ ID NO: 7, light chain variable region SEQ ID NO: 9 (antibody, V domains shown)
VH: DVQLQESGPGLVKPSQSLSLTCTVTGYSITSDYAWNWIRQFPGNKLEWMGYINYSGNTDYNPSLKSRSSITRDTSKNQFFLQLNSVTTGDTATYYCARGNFEGAMDYWGQGTSVTVSS
VL: SIVMTQTPKFLLVSAGDRVTITCKASQSVSNDVAWYQQKPGQSPKLLIYYASNRYPGVPDRFTGSGYGTDFTFTISTVQAEDLAVYFCQQDYSSPWTFGGGTKLEIK
modifications: Synthetic (Heavy chain variable region of an anti-Ang2 antibody); Synthetic (Light chain variable region of anti-Ang2 antibody)
blood vessel density and vascular normalization in tumor [1]: decreases the density of blood vessels in tumor and induces vascular normalization
number of metastatic lung cancer in lymph nodes [2]: decreased
size of lymph nodes [2]: decreased
weight of normal mice [3]: neither abnormal weight loss/gain
vascular toxicity (morphology of blood vessels, CD31 staining) ([3]; after 20 days): no vascular toxicity
inhibition of growth of the tumor compared to the control group [4]: about 40%
